Results as given in US20190389957A1 (SINGAPORE HEALTH SERVICES PTE, published 2019).
Substitutions are numbered along the chain they refer to. Values belong to the molecule of their own block, whether it stands above or below them.

Columns and labels:
[1] = biological target: Mouse IL-11, endogenously produced by TGFβ1-stimulated mouse atrial fibroblasts (mouse) (UniProt P47873); test: cell-based or functional assay
[2] = biological target: Human IL-11, endogenously produced by TGFβ1-stimulated human cells (human) (UniProt P20809); test: cell-based or functional assay
[3] = biological target: T1, Human IL-11Rα endogenously expressed on primary human cells (human, UniProt Q14626 23-422); test: cell-based or functional assay
T1 sequence (looked up): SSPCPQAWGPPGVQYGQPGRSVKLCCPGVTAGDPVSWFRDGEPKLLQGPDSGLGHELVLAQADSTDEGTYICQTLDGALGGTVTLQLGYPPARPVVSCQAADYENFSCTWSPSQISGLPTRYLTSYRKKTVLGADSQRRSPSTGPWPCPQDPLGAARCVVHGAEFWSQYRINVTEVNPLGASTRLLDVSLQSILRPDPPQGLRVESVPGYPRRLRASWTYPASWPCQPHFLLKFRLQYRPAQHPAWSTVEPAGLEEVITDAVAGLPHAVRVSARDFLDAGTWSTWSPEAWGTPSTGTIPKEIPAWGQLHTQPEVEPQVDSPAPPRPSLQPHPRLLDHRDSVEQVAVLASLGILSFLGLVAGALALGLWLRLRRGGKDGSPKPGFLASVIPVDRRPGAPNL

[4] = biological target: Tagged human IL-11Rα expressed at the surface of transiently transfected cells (human) (UniProt Q14626); test: flow cytometry of subcloned hybridoma supernatant on cells transiently transfected with FLAG-tagged human IL-11Rα (sheet head: 'cells transfected with pB1-IL11-hum.FL', 'flow cytometry (Attunes)'); fluorescent anti-mouse IgG secondary; negative control GMFI 930
[5] = biological target: T1, Human IL-11Rα endogenously expressed on …; test: cell-based or functional assay; remark: listed apart in the source
[6] = biological target: T2, IL-11Rα as used in the Biacore kinetics of Example 14 (UniProt Q14626 23-363, limits assumed); test: SPR (Biacore T200), multi-cycle kinetics, 25 C, HBS-P+ pH 7.4 with 0.1% BSA
T2 sequence (looked up): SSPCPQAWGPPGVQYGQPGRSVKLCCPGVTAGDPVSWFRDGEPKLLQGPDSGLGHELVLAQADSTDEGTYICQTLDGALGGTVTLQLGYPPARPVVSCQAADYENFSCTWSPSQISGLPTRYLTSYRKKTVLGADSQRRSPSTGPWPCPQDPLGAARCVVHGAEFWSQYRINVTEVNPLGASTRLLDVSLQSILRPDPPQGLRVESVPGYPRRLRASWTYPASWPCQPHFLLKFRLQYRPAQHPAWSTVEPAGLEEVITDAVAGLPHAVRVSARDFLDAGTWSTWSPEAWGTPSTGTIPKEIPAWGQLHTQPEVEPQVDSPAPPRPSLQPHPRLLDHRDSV
Description: The six antibodies were assessed by multi-cycle kinetics analysis at a final concentration of 1 μg/ml, run at 25° C. with HBS-P+ running buffer (pH 7.4) containing 0.1% BSA using a Biacore T200 instrument.
The relative KD was calculated by dividing the KD of the humanised variant by that of the 9A7 antibody assayed in the same experiment. All six humanised antibodies bound to IL-11R within two-fold of 9A7 (SEQ ID NO:7 and 13).

[7] = biological target: T3, Recombinant human IL-11Rα (Sino Biological Cat. No. 10252-H08H) (human, UniProt Q14626 23-363); test: SPR, BIAcore T200, multi-cycle kinetics; recombinant human IL-11Rα immobilised, antibody (IgG1 format) flowed at 100 to 1.56 nM; 1:1 model; analysis (1); Chi2 0.181 RU2
T3 construct: Bought protein, immobilised on the chip
T3 sequence (looked up): T2 sequence (looked up)

[8] = biological target: T3, Recombinant human IL-11Rα (Sino …); test: SPR, BIAcore T200, multi-cycle kinetics; recombinant human IL-11Rα immobilised, antibody (IgG1 format) flowed at 50 to 1.56 nM; 1:1 model; analysis (2); Chi2 0.0356 RU2
[9] = biological target: T4, IL-11:IL-11Rα fusion protein (hyper IL-11); test: cell-based or functional assay
T4 chain: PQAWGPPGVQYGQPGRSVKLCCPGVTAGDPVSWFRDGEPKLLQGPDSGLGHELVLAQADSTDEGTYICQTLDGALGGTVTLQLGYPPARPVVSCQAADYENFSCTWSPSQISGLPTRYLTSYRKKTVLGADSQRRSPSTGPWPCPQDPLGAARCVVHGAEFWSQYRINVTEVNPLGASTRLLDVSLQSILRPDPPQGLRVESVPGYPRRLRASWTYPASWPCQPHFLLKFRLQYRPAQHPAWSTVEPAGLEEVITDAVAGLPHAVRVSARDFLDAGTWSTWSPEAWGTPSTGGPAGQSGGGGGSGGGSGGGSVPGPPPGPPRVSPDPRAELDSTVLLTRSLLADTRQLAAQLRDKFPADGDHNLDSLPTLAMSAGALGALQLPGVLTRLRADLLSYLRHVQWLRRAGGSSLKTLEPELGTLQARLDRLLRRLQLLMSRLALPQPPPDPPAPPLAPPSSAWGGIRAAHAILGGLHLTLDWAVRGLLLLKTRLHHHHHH

[10] = biological target: T5, Mouse IL-11Rα endogenously expressed on primary mouse fibroblasts (mouse, UniProt Q64385 24-432); test: cell-based or functional assay
T5 sequence (looked up): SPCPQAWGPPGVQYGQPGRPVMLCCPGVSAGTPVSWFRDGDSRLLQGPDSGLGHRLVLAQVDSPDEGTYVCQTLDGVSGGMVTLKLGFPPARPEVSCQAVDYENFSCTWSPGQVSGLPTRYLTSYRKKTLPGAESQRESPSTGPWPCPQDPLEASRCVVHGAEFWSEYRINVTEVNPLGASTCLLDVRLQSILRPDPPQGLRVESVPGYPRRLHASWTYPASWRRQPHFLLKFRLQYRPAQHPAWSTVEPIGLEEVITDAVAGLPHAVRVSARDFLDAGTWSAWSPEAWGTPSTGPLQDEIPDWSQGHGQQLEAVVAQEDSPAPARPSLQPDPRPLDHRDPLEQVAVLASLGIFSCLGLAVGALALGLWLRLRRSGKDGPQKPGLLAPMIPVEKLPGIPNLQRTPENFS

[11] = biological target: T1, Human IL-11Rα endogenously expressed on …; test: cell-based or functional assay; remark: listed apart in the source
[12] = biological target: T1, Human IL-11Rα endogenously expressed on …; test: cell-based or functional assay; remark: listed apart in the source
[13] = biological target: T4, IL-11:IL-11Rα fusion protein (hyper …); test: cell-based or functional assay
[14] = biological target: Tagged human IL-11Rα expressed at the surface of transiently transfected cells (human) (UniProt Q14626); test: same assay; by the legend the percent is the strength of binding relative to the anti-FLAG positive control (100%); negative control 3%
[15] = biological target: T1, Human IL-11Rα endogenously expressed on …; test: cell-based or functional assay; remark: listed apart in the source
[16] = biological target: T1, Human IL-11Rα endogenously expressed on …; test: cell-based or functional assay; remark: listed apart in the source

Sequence of Mouse IL-11, endogenously produced by TGFβ1-stimulated mouse atrial fibroblasts (mouse) (P47873 22-199 limits assumed): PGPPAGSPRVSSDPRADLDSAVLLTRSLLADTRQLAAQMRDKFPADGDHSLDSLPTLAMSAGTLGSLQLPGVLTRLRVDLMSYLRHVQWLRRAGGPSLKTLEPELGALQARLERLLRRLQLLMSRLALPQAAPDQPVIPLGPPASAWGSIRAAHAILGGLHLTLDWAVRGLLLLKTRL

IC50 of inhibition of MMP2 secretion, human atrial fibroblasts + TGFB1 5 ng/ml, 24 h (panel 'MMP2 - TGFB - 9A7') [3]: 82 ng/mL
IC50 of inhibition of TIMP1 secretion, human atrial fibroblasts + TGFB1 5 ng/ml, 24 h (panel 'TIMP1 - TGFB - 9A7') [3]: 97.4 ng/mL
GMFI [4]: 34800
IC50 of inhibition of MMP2 secretion, primary human hepatic stellate cells + TGFB1 5 ng/ml (endogenous IL-11); upper panel [5]: 0.93 ng/mL
IC50 of inhibition of MMP2 secretion, primary human hepatic stellate cells + exogenous IL-11 2 ng/ml; lower panel [5]: 1.64 ng/mL
Kd [6]: 4.29 nM
koff [6]: 0.000926 s⁻¹
kon [6]: 216000 M⁻¹ s⁻¹
relative KD (KD divided by KD of 9A7) [6]: 1 ratio to 9A7
Kd [7]: 7.85 nM
koff [7]: 0.000759 s⁻¹
kon [7]: 96600 M⁻¹ s⁻¹
Kd [8]: 5.46 nM
koff [8]: 0.000875 s⁻¹
kon [8]: 160000 M⁻¹ s⁻¹
IC50 of inhibition of MMP2 secretion, primary mouse cardiac fibroblasts + IL-11:IL11RA (hyper IL-11) 0.2 ng/ml (panel 'IL-11:IL11RA-driven MMP2 secretion') [9]: 35.1 ng/mL
IC50 of inhibition of MMP2 secretion, primary mouse cardiac fibroblasts + TGFB1 5 ng/ml (endogenous IL-11) (panel 'TGFB1-driven MMP2 secretion') [10]: 14.6 ng/mL
IC50 of inhibition of MMP2 secretion, primary mouse cardiac fibroblasts + exogenous IL-11 2 ng/ml (panel 'IL-11-driven MMP2 secretion') [10]: 29.2 ng/mL
IC50 of inhibition of MMP2 secretion, primary human atrial fibroblasts + TGFβ1 (panel '9A7') [11]: 5.88 ng/mL
IC50 of inhibition of MMP2 secretion by HSCs stimulated with TGFβ1 (5 ng/ml, 24 h) [12]: 5.4 pM
IC50 of inhibition of MMP2 secretion, human atrial fibroblasts + IL-11:IL11RA (hyper IL-11) 0.2 ng/ml (panel 'MMP2 - IL-11:IL11RA - 9A7') [13]: 246 ng/mL
IC50 of inhibition of TIMP1 secretion, human atrial fibroblasts + IL-11:IL11RA (hyper IL-11) 0.2 ng/ml (panel 'TIMP1 - IL-11:IL11RA - 9A7') [13]: 196 ng/mL
% positive [14]: 111%
IC50 of inhibition of TIMP1 secretion, primary human lung fibroblasts + TGFB1 5 ng/ml (panel '9A7') [15]: 2.29 ng/mL
B1: Anti-IL-11Rα antibody clone BSO-9A7 (antibody, V domains shown)
VH: QVQLQQPGAELVRPGSSVKLSCKASGYTFTNYWMHWLKQRPVQGLEWIGNIGPSDSKTHYNQKFKDKATLTVDKSSSTAYMQLNSLTSEDSAVYYCARGDYVLFTYWGQGTLVTVSA
VL: DIVLTQSPATLSMTPGDSVSLSCRASQSISNNLHWYQQKSHESPRLLIKYASQSISGIPSRFSGSGSGTDFTLSFNSVETEDFGVYFCQQSYSWPLTFGAGTKLELK
notes: also called RA7; 9A7 VH/VL

Kd [6]: 5.55 nM
koff [6]: 0.000781 s⁻¹
kon [6]: 141000 M⁻¹ s⁻¹
relative KD (KD divided by KD of 9A7) [6]: 1.29 ratio to 9A7
IC50 of inhibition of MMP2 secretion, human hepatic stellate cells + TGFβ1 5 ng/ml (panel 'VH4/VL4') [16]: 3.15 ng/mL
IC50 of inhibition of TIMP1 secretion, primary human lung fibroblasts + TGFB1 5 ng/ml (panel 'VH4/VL4') [15]: 4.19 ng/mL
B3: Humanised BSO-9A7 variant VH4/VL4 (antibody, V domains shown)
VH: QVQLVQSGAEVKKPGASVKVSCKASGYTFTNYWMHWLRQRPGQGLEWIGNIGPSDSKTHYNQKFKDRVTMTVDKSTSTAYMELSSLRSEDTAVYYCARGDYVLFTYWGQGTLVTVSS
VL: DIVLTQSPATLSLSPGERATLSCRASQSISNNLHWYQQKPGQAPRLLIKYASQSISGIPARFSGSGSGTDFTLTISSLEPEDFAVYYCQQSYSWPLTFGQGTKLEIK
notes: Variable domains only; also called printed once as VH4/VH4

Kd [6]: 3.71 nM
koff [6]: 0.000747 s⁻¹
kon [6]: 201000 M⁻¹ s⁻¹
relative KD (KD divided by KD of 9A7) [6]: 0.86 ratio to 9A7
B5: Humanised BSO-9A7 variant VH3/VL4 (antibody, V domains shown)
VH: B3 VH with V68A, M70L
VL: B3 VL
notes: Variable domains only

Kd [6]: 5.67 nM
koff [6]: 0.000932 s⁻¹
kon [6]: 164000 M⁻¹ s⁻¹
relative KD (KD divided by KD of 9A7) [6]: 1.32 ratio to 9A7
IC50 of inhibition of MMP2 secretion, primary human atrial fibroblasts + TGFβ1 (panel 'VH4/VL2') [11]: 11.1 ng/mL
B7: Humanised BSO-9A7 variant VH4/VL2 (antibody, V domains shown)
VH: B3 VH
VL: B3 VL with P40S, P80T, Y87F
notes: Variable domains only

Further lines, the molecule ahead of its results:

Molecule: Commercial monoclonal mouse anti-IL-11 antibody (Monoclonal Mouse IgG2A; Clone #22626; Catalog No. MAB218; R&D Systems)
fold change in percentage of αSMA-positive (activated) mouse atrial fibroblasts against unstimulated cultures, TGFβ1, 24 h [1]: 1.44 fold
fold change in percentage of αSMA-positive (activated) human atrial fibroblasts against unstimulated cultures, TGFβ1 5 ng/ml, 24 h [2]: 0.89 fold

B2: Humanised BSO-9A7 variant VH3/VL3 (antibody, V domains shown)
VH: B3 VH with V68A, M70L
VL: B3 VL with Y87F
notes: Variable domains only
Kd [6]: 3.61 nM
koff [6]: 0.000751 s⁻¹
kon [6]: 208000 M⁻¹ s⁻¹
relative KD (KD divided by KD of 9A7) [6]: 0.84 ratio to 9A7
IC50 of inhibition of MMP2 secretion, human hepatic stellate cells + TGFβ1 5 ng/ml (panel 'VH3/VL3') [16]: 23.3 ng/mL
IC50 of inhibition of MMP2 secretion, primary human atrial fibroblasts + TGFβ1 (panel 'VH3/VL3') [11]: 32.6 ng/mL
IC50 of inhibition of TIMP1 secretion, primary human lung fibroblasts + TGFB1 5 ng/ml (panel 'VH3/VL3') [15]: 27.4 ng/mL

B4: Humanised BSO-9A7 variant VH4/VL3 (antibody, V domains shown)
VH: B3 VH
VL: B3 VL with Y87F
notes: Variable domains only
Kd [6]: 5.57 nM
koff [6]: 0.000992 s⁻¹
kon [6]: 178000 M⁻¹ s⁻¹
relative KD (KD divided by KD of 9A7) [6]: 1.3 ratio to 9A7
IC50 of inhibition of MMP2 secretion, primary human atrial fibroblasts + TGFβ1 (panel 'VH4/VL3') [11]: 64.7 ng/mL

B6: Humanised BSO-9A7 variant VH3/VL2 (antibody, V domains shown)
VH: B3 VH with V68A, M70L
VL: B3 VL with P40S, P80T, Y87F
notes: T0003 heads the columns 'Heavy chain' and 'Light chain', but the entries are variable domains
Kd [6]: 3.63 nM
koff [6]: 0.000801 s⁻¹
kon [6]: 221000 M⁻¹ s⁻¹
relative KD (KD divided by KD of 9A7) [6]: 0.85 ratio to 9A7
